US20170145069A1 (Novo Nordisk, published 2017)
*1 amine or outer side, *2 acyl side, *3 side chain or, on linkers, in order; H or OH if unused. Where no end group is shown, it is not given here. Side-chain parts run from the residue outwards. The star is where a group is joined. Decanoyl(10-(4-HOOC-PhO)) = O=C(O)c1ccc(OCCCCCCCCCC(=O)*)cc1; γGlu = O=C(O)[C@H](CCC(=O)[*:2])N[*:1]; AEEA = NCCOCCOCC(=O)O

Legend:
human GLP-1 receptor [1] = molecular target: T1, human GLP-1 receptor (human, UniProt P43220 24-463); assay: cell-based or functional assay
human GLP-1 receptor [2] = molecular target: T1, human GLP-1 receptor; assay: cell-based or functional assay; remark: listed apart in the source
human GLP-1 receptor [3] = molecular target: T1, human GLP-1 receptor; assay: SPA, displacement of 125I-GLP-1(7-36)NH2, BHK membranes, 0.001% HSA
Procedure: Test compounds, membranes, SPA-particles and [¹²⁵I] ]-GLP-1(7-36)NH₂ were diluted in assay buffer. 50 ul (micro liter) buffer (“low albumin” experiment containing 0.001% HSA) was added to Optiplate, and 25 ul of test compounds were added. 5-10 μg membrane protein/sample was added (50 μl) corresponding to 0.1-0.2 mg protein/ml (to be preferably optimised for each membrane preparation). SPA-particles (Wheatgerm agglutinin SPA beads, Perkin Elmer, #RPNQ0001) were added in an amount of 0.5 mg/well (50 μl). The incubation was started with [¹²⁵I]-GLP-1]-(7-36)NH₂ (final concentration 0.06 nM corresponding to 49.880 DPM, 25 μl). The plates were sealed with PlateSealer and incubated for 120 minutes at 30° C. while shaking. The plates were centrifuged (1500 rpm, 10 min) and counted in Topcounter.
The IC₅₀ value was read from the curve as the concentration which displaces 50% of ¹²⁵I-GLP-1 from the receptor.

| Binder | In vitro potency (AlphaScreen cAMP; membranes) EC50 (human GLP-1 receptor [1]) | In vitro potency (CRE-luciferase) low albumin EC50 (human GLP-1 receptor [2]) | IC50 (human GLP-1 receptor [3]) |
| --- | --- | --- | --- |
| HAEGTFTSDVSSYLEGQAAK([AEEA-AEEA-γGlu-Decanoyl(10-(4-HOOC-PhO))])EFIAWLVRGRK([AEEA-AEEA-γGlu-Decanoyl(10-(4-HOOC-PhO))])E [Comparative compound of Example 4a: Compound of Example 46, Chem. 65, in WO 2011/080103] | 0.101 nM | 0.04 nM | 2.77 nM |
| HAEGTFTSDVSK([Gly-Ser-Ser-Gly-Ser-Ser-γGlu-Decanoyl(10-(4-HOOC-PhO))])YLEEQAAK([Gly-Ser-Ser-Gly-Ser-Ser-γGlu-Decanoyl(10-(4-HOOC-PhO))])EFIAWLVQGRG | 0.095 nM | 0.0053 nM | 1.63 nM |
